Data reported in article PMC4015189 (Cell, 2014).
One block for each binder: values may come before it.

Columns and labels:
SEC = target: the molecule itself; experiment: SEC
microtubules = experiment: single-molecule TIRF microscopy
light scattering = target: the molecule itself; experiment: light scattering

B1: NuMA-bonsai-tail II-GFP (other, human, UniProt Q14980 1-400, looked up)
chain: MTLHATRGAALLSWVNSLHVADPVEAVLQLQDCSIFIKIIDRIHGTEEGQQILKQPVSERLDFVCSFLQKNRKHPSSPECLVSAQKVLEGSELELAKMTMLLLYHSTMSSKSPRDWEQFEYKIQAELAVILKFVLDHEDGLNLNEDLENFLQKAPVPSTCSSTFPEELSPPSHQAKREIRFLELQKVASSSSGNNFLSGSPASPMGDILQTPQFQMRRLKKQLADERSNRDELELELAENRKLLTEKDAQIAMMQQRIDRLALLNEKQAASPLEPKELEELRDKNESLTMRLHETLKQCQDLKTEKSQMDRKINQLSEENGDLSFKLREFASHLQQLQDALNELTEEHSKATQEWLEKQAQLEKELSAALQDKKCLEEKNEILQGKLSQLEEHLSQLQDNSALLSLPGYRPTTRSSARRSQAGVSSGAPPGRNSFYMGTCQDEPEQLDDWNRIAELQQRNRVCPPHLKTCYPLESRPSLSLGTITDEEMKTGDPQETLRRASMQPIQIAEGTGITTRQQRKRVSLEPHQGPGTPESKKATSCFPRPMTPRDRHEGRKQSTTEAQKKAAPASTKQADRRQSMAFSILNTPKKLGNSLLRRGASKKALSKASPNTRSGTRRSPRIA
stoichiometry N (SEC): 2
binding lifetime (microtubules): 3.6 ± 0.2 s

B2: NuMA NTD (domain or fragment, human, UniProt Q14980 1-400, looked up)
chain: MTLHATRGAALLSWVNSLHVADPVEAVLQLQDCSIFIKIIDRIHGTEEGQQILKQPVSERLDFVCSFLQKNRKHPSSPECLVSAQKVLEGSELELAKMTMLLLYHSTMSSKSPRDWEQFEYKIQAELAVILKFVLDHEDGLNLNEDLENFLQKAPVPSTCSSTFPEELSPPSHQAKREIRFLELQKVASSSSGNNFLSGSPASPMGDILQTPQFQMRRLKKQLADERSNRDELELELAENRKLLTEKDAQIAMMQQRIDRLALLNEKQAASPLEPKELEELRDKNESLTMRLHETLKQCQDLKTEKSQMDRKINQLSEENGDLSFKLREFASHLQQLQDALNELTEEHSKATQEWLEKQAQLEKELSAALQDKKCLEEKNEILQGKLSQLEEHLSQLQDN
stoichiometry N (light scattering): 2

Further lines, results first:

binding lifetime (microtubules): 1.2 ± 0.2 s
B3: EB1-GFP (natural protein, human, UniProt Q15691 1-268, looked up)
chain: MAVNVYSTSVTSDNLSRHDMLAWINESLQLNLTKIEQLCSGAAYCQFMDMLFPGSIALKKVKFQAKLEHEYIQNFKILQAGFKRMGVDKIIPVDKLVKGKFQDNFEFVQWFKKFFDANYDGKDYDPVAARQGQETAVAPSLVAPALNKPKKPLTSSSAAPQRPISTQRTAAAPKAGPGVVRKNPGVGNGDDEAAELMQQVNVLKLTVEDLEKERDFYFGKLRNIELICQENEGENDPVLQRIVDILYATDEGFVIPDEGGPQEEQEEY

binding lifetime (microtubules): 2.8 ± 0.2 s
B4: NuMA-tail II-GFP (domain or fragment, human, UniProt Q14980 1868-2091, looked up)
chain: SALLSLPGYRPTTRSSARRSQAGVSSGAPPGRNSFYMGTCQDEPEQLDDWNRIAELQQRNRVCPPHLKTCYPLESRPSLSLGTITDEEMKTGDPQETLRRASMQPIQIAEGTGITTRQQRKRVSLEPHQGPGTPESKKATSCFPRPMTPRDRHEGRKQSTTEAQKKAAPASTKQADRRQSMAFSILNTPKKLGNSLLRRGASKKALSKASPNTRSGTRRSPRIA
